In publication PMC6239170:

Tests used:
IMP3 RRM12 Y5A = IMP3 RRM12 Y5A (UniProt O00425 1-161, Y5A); assay: ITC
IMP3 RRM12 = IMP3 RRM12 (UniProt O00425 1-161); assay: ITC
IMP3 RRM12, sequence (O00425 1-161): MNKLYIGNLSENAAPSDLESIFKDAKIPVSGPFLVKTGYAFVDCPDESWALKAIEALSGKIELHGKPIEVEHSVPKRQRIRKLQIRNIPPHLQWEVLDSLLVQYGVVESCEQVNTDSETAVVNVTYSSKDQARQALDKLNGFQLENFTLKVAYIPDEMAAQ

IMP3 RRM12 Y5A, sequence (O00425 1-161 Y5A): as the sequence (O00425 1-161) above, with Y5A counted along it

Binder | binding result (IMP3 RRM12 Y5A) | binding result (IMP3 RRM12)
ACAC (ssRNA) | no binding | 
UUUU (ssRNA) |  | no binding
GGGG (ssRNA) |  | no binding
